From US20220372120A1 (GEMINI THERAPEUTICS SUB, published 2022)
Substitutions are numbered along the chain they refer to. Where “and” joins values, the source holds several entries; their conditions need not be identical. Equal values may be shown once.

B1: Antibody 1 (antibody, V domains shown)
VH: QVQLQESGPGLVKPSQTLSLTCTVSGFSLTNYGVYWIRQHPGKGLEWIGVVWSGGTTEFNPSLKSRVTISKDTSKNQVSLKLSSVTAADTAVYYCARNFGNYAMDYWGQGTSVTVSS
VL: DIQLTQSPSSLSASVGDRVTITCKASSSVTYLHWYQQKPGKAPKPLIYATSNLASGVPSRFSGSGSGTDFTLTISSLQPEDFATYYCQHRSSSNPLTFGAGTKLELK
B2: Antibody 3 (antibody, V domains shown)
VH: B1 VH
VL: B1 VL with K24R, S27T, L32M, T50S
B3: Antibody 2 (antibody, V domains shown)
VH: B1 VH with V51I, F59Y, L63M, Y106F
VL: B1 VL
B4: Antibody 4 (antibody, V domains shown)
VH: B1 VH with V51I, F59Y, L63M, Y106F
VL: B1 VL with K24R, S27T, L32M, T50S
B5: FHR-1.3B4 (antibody, V domains shown)
VH: QVQLRQSGPGLVQPSQSLSITCTVSGFSLTNYGVYWVRQSPGKGLEWLGVIWSGGTTDYSAAFISRLSISKDNSKSQVFFKMNSLQADDTAIYYCARNFGNYAMDYWGQGTSVTVSS
VL: QIVLSQSPTILSASPGEKVTMTCRASSSVTYMHWYQQKPGSSPKPWIYATSNLASGVPARFSGSGSGTSYSLTISRVEAEDAATYYCQQRSSSNPLTFGAGTKLELK
notes: Mouse monoclonal antibody raised in BALB/c mice against recombinant human FHR-1 (hybridoma); kappa light chain implied by capture on rat anti-mouse kappa RM19; also called anti-FHR-1.3B4; anti-FHR-1 3B4

Key:
[1] = target: purified C3b (Complement Technologies) (UniProt P01024); test: SPR (Biacore T200, 37 C), C3b amine-coupled to chip, pdFH injected alone, equilibrium analysis
Human purified factor H [2] = target: T1, Human purified factor H (human, UniProt P08603 19-1231); test: cell-based or functional assay
Human purified factor H [3] = target: T1, Human purified factor H; test: cell-based or functional assay; remark: listed apart in the source
Human purified factor H [4] = target: T1, Human purified factor H; test: cell-based or functional assay; remark: listed apart in the source
Human purified factor H [5] = target: T1, Human purified factor H; test: SPR (BiaCore T200), antibody captured on Protein A or Protein G chip, full length FH flowed over
Protocol: To determine binding affinity of Antibodies 1-4, surface plasmon resonance (SPR) experiments were performed using a BiaCore T200 (GE Healthcare) and CMS sensor chips (GE Healthcare) in accordance with the manufacturer's instructions. Briefly, Antibodies […] or anti-FHR-1.3B4 were captured onto a Protein A or Protein G coupled chip and full length FH was flown over the captured moAB at decreasing concentrations.

Human purified factor H [6] = target: T1, Human purified factor H; test: cell-based or functional assay; remark: listed apart in the source

T1 sequence (P08603 19-1231): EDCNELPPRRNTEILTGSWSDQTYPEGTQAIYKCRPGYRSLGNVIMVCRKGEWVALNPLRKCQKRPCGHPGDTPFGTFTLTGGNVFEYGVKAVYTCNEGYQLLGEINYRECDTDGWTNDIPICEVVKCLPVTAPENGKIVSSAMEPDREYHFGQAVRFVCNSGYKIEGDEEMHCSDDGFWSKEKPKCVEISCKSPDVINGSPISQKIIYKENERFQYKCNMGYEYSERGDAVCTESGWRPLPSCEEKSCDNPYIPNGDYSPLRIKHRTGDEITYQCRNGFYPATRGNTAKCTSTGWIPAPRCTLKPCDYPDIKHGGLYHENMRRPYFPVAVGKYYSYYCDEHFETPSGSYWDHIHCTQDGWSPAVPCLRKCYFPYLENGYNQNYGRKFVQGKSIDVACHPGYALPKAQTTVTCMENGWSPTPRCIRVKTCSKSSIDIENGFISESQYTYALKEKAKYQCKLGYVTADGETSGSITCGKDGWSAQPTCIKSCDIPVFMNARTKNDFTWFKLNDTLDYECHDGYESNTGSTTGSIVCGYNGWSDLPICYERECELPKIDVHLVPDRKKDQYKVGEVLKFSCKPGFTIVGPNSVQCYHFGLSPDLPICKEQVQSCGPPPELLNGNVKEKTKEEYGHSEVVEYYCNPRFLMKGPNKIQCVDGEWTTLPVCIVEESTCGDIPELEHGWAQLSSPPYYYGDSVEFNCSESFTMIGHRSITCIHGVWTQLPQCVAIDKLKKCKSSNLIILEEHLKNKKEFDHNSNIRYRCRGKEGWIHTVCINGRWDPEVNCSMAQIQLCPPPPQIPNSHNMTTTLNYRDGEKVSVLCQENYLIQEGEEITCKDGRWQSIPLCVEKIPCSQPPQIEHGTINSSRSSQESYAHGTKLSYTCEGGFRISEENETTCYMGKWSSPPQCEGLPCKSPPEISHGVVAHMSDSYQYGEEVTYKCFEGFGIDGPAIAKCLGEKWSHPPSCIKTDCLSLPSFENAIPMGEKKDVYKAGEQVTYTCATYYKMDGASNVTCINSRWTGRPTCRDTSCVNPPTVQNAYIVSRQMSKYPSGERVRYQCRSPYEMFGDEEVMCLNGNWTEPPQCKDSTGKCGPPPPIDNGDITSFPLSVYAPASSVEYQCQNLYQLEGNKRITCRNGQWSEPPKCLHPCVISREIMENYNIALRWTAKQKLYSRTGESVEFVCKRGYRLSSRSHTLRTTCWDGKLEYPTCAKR

| Molecule | Kd [1] | IC50 of inhibition of C3b deposition on LPS, 10% normal human serum (Human purified factor H [2]) | IC50 of inhibition of SRBC hemolysis, first replicate (Human purified factor H [3]) | IC50 of inhibition of SRBC hemolysis, second replicate (Human purified factor H [3]) | IC50 of inhibition of SRBC hemolysis, 10% human serum with anti-FH.09 (Human purified factor H [4]) | Kd (Human purified factor H [5]) | koff (Human purified factor H [5]) | kon (Human purified factor H [5]) | IC50 of inhibition of C3b deposition on LPS, Replicate 1 (Human purified factor H [6]) | IC50 of inhibition of C3b deposition on LPS, Replicate 2 (Human purified factor H [6]) |
| --- | --- | --- | --- | --- | --- | --- | --- | --- | --- | --- |
| Human purified factor H (from UniProt P08603 19-1231) | 1300 nM | – | – | – | – | – | – | – | – | – |
| B1 | – | 2.26 µg/ml and 15.1 nM | 10.7 µg/ml and 71.3 nM | 10.9 µg/ml and 72.7 nM | 10.6 ug/ml and 70.7 nM | 0.5 nM | 2.67e-05 s⁻¹ | 53800 M⁻¹ s⁻¹ | 3.5 µg/ml and 23.4 nM | 2.26 µg/ml and 15.1 nM |
| B2 | – | 3.47 µg/ml and 23.1 nM | 11.1 µg/ml and 74 nM | 9.1 µg/ml and 60.7 nM | 9.4 ug/ml and 62.7 nM | 0.85 nM | 4.07e-05 s⁻¹ | 48500 M⁻¹ s⁻¹ | 4.14 µg/ml and 27.6 nM | 3.47 µg/ml and 23.1 nM |
| B3 | – | 2.82 µg/ml and 18.8 nM | 11.4 µg/ml and 76.3 nM | 10.4 µg/ml and 69.3 nM | 10.1 ug/ml and 67.3 nM | 0.52 nM | 3.06e-05 s⁻¹ | 58500 M⁻¹ s⁻¹ | 3.68 µg/ml and 24.5 nM | 2.82 µg/ml and 18.8 nM |
| B4 | – | 3.51 µg/ml and 23.4 nM | 11.5 µg/ml and 76.5 nM | 11.8 µg/ml and 78.5 nM | 11.5 ug/ml and 76.7 nM | 0.58 nM | 3.14e-05 s⁻¹ | 55300 M⁻¹ s⁻¹ | 4.34 µg/ml and 28.9 nM | 3.51 µg/ml and 23.4 nM |
| B5 | – | 38 nM and 5.7 µg/ml | – | – | 11.4 ug/ml and 76 nM | 0.91 nM | 5.32e-05 s⁻¹ | 59500 M⁻¹ s⁻¹ | – | – |
